Reference: patent publication US12569538B2, “DPEP-1 binding compositions and methods of use” (Arch Biopartners, Inc., priority 2015, dated 2026)

Legend:
[1] = tested on: neutrophil adhesion in the hepatic sinusoids; experiment: Neutrophil adhesion in hepatic sinusoids after LPS, intravital microscopy; type: in vivo, LysMeGFP mice; settings: for neutrophil adhesion in the hepatic sinusoids in the presence of LPS: 1 mM peptide intravenous 5 minutes after 0.5 mg/kg LPS intraperitoneal, liver imaged after 3 hours
Procedure: Six to ten week old LysMeGFP mice were injected with 1 mM dose of LSALT or GFE-1 peptides (intravenous) 5 minutes after the injection of 0.5 mg/kg of lipopolysaccharide (intraperitoneal). After 3 hours, animals were injected with ketamine and xylazine to provide general anesthesia. Fluorescently conjugated F4/80 and PECAM-1 antibodies were then administered via jugular vein cannulation and intravital spinning disk confocal microscopy was performed. The livers were imaged for an hour and the number of neutrophils were counted at different time points. Neutrophils which were stationary for >30 seconds in the liver sinusoids were counted as adherent cells. Data are representative of three independent experiments. An unpaired 2-tailed student's t-test was performed comparing LSALT, GFE-1 or control treated group against the LPS treated group (*p<0.05).

[2] = biological target: T1, renal rat membrane dipeptidase (DPEP-1) (Rattus norvegicus, UniProt P31430); experiment: Peptide binding to Cos-7 cells transfected with rat DPEP-1, immunofluorescence microscopy; settings: rat DPEP-1 transfected Cos-7 cells; fluorescently conjugated peptide on ice 30 minutes
T1 construct: expressed in transfected cells; host or cells: Cos-7
Procedure: Cos-7 cells were transiently transfected with […] of renal rat membrane dipeptidase (DPEP-1) plasmid using lipofectamine 2000 (Invitrogen) reagent. 48 hours after transfection, media was removed and cells were washed with PBS. Cells were incubated with LSALT conjugated with Alexa-488 (Green), GFE-1 peptide conjugated with Alexa-568 (Red) or control peptide conjugated with Alexa-488 (Green) on ice for 30 minutes. Cells were washed and fixed using 4% paraformaldehyde and immunofluorescence microscopy was performed to assess binding. Shown are representative photomicrographs of each experimental condition (n=2).

[3] = biological target: T2, Human DPEP2 (Homo sapiens, UniProt Q9H4A9); experiment: Binding of Alexa-488 conjugated peptide to Cos-1 cells transfected with human DPEP2
T2 construct: expressed in transfected cells; host or cells: Cos-1
Procedure: (§1) Cos-1 cells were transiently transfected with either […] of human DPEP-1, DPEP2, or DPEP3 gene using lipofectamine 2000 (Invitrogen) reagent in OptiMEM medium. 24 hours after transfection, DPEP-1, DPEP2, or DPEP3 expressing cells were re-seeded on collagen coated (neutralized) wells in 24 well plates and allowed to grow for 24 hours at 37º° C. 24 hours after seeding, media was removed and cells were washed with PBS. Cells were blocked with FBS/NBSA/Tween in PBS for 30 minutes on ice. Cells were then washed with PBS and incubated with LSALT or GFE-1, conjugated with Alexa-488 (green). After incubation, cells were washed with PBS and stained with DAPI for 5 minutes on ice. Cells were then washed with PBS and fixed using 4% paraformaldehyde and immunofluorescence microscopy was performed to assess binding. Representative photomicrographs are shown for each experimental condition (n=3) in FIG. 6A. Proteins from DPEP-1. DPEP2 and DPEP3 transfected cells were isolated after 48 hours using octyl-glucoside/RIPA lysis buffer and western blot analysis was performed to assess DPEP-1, DPEP2 and DPEP3 protein expression using specific antibodies; DPEP-1 antibody (Sigma), DPEP2 (Abcam) and DPEP3 (Santacruz). Blots were stripped and reprobed with an anti-P-actin.

[4] = tested on: DPEP-1; settings: cited from earlier work
[5] = biological target: T3, Human DPEP-3 (Homo sapiens, UniProt Q9H4B8); experiment: Binding of Alexa-488 conjugated peptide to Cos-1 cells transfected with human DPEP3
T3 construct: expressed in transfected cells; host or cells: Cos-1
T3 sequence (Q9H4B8 36-463): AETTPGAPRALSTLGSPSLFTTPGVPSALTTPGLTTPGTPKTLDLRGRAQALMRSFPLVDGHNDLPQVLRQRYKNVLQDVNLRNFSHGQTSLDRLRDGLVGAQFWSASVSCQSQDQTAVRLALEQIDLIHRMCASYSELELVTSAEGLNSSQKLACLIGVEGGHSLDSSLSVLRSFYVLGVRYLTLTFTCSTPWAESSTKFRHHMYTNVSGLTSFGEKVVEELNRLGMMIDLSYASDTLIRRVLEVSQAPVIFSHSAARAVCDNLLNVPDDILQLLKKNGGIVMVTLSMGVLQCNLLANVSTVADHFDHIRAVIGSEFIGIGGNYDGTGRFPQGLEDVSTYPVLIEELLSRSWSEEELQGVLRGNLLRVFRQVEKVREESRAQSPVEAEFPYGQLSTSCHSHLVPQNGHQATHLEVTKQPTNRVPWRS
Procedure: as §1

[6] = biological target: T1, renal rat membrane dipeptidase (DPEP-1); experiment: Peptide binding to Cos-7 cells transfected with rat DPEP-1, flow cytometry; settings: rat DPEP-1 transfected Cos-7 cells; Alexa-488 conjugated peptide on ice 30 minutes
Procedure: Cos-7 cells were transiently transfected with 5∧g of renal rat membrane dipeptidase (DPEP-1) plasmid using lipofectamine2000 (Invitrogen) reagent. 48 hours after transfection, cells were incubated with LSALT conjugated to Alexa-488 (green) on ice for 30 minutes. Cells were washed and flow cytometry was performed to assess binding Shown are single parameter histographs for each experimental condition (n=2).

[7] = biological target: T4, human membrane dipeptidase (DPEP-1) (Homo sapiens, UniProt P16444); experiment: Membrane dipeptidase enzyme activity assay, fluorimetric detection of D-Phe from Gly-D-Phe; type: biochemical; settings: protein from human DPEP-1 transfected Cos-1 cells; Gly-D-Phe substrate, 37° C., 3 hours
T4 construct: expressed in transfected cells; host or cells: Cos-1 (protein lysate, octylglucoside)
T4 sequence (P16444 17-385): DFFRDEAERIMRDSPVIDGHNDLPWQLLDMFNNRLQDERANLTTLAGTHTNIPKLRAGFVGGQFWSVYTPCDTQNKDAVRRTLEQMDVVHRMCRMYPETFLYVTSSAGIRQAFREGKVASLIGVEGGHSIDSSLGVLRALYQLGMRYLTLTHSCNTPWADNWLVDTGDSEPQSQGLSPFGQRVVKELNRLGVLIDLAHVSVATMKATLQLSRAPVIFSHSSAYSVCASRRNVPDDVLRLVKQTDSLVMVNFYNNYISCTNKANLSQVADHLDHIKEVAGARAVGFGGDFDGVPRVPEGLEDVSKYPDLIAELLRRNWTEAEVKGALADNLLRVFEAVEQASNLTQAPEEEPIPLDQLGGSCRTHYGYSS
Procedure: Cos-1 cells were transiently transfected with […] of human membrane dipeptidase (DPEP-1) plasmid using lipofectamine 2000 (Invitrogen) reagent. 48 hours after transfection, media was removed and cells were washed with PBS. Proteins were isolated using octylglucoside in the absence of protease inhibitors. Membrane dipeptidase assay and the fluorimetric detection of D-Phe was performed exactly as described by Heywood and Hooper previously. In brief, proteins were first incubated with membrane dipeptidase substrate Gly-D-Phe either in the presence or absence of LSALT or GFE-1 peptide at 37° C. for 3 hours. The fluorescence signal generated from the conversion of D-Phe to […] in the presence of D-aminoacidoxidase and peroxidase was measured using a fluorescence plate reader.

[8] = tested on: B16-F10 murine melanoma cells; experiment: B16-F10 melanoma lung metastasis, syngeneic model; type: in vivo, C57-BL6 mice; settings: 1 mM peptide intravenous 5 minutes before 100,000 B16-F10 cells; lungs harvested after 2 weeks
Procedure: 8-10 weeks old C57-BL6 mice (Charles River) were injected intravenously with 100,000 B16-F10 murine melanoma cells 5 minutes after the injection of either LSALT or GFE-1 peptide (1 mM) via intravenous tail injection. Animals were sacrificed after 2 weeks and lungs were harvested. Tissues were processed for histology as described before and bematoxylin-eosin staining was performed to assess tumor burden.

[9] = biological target: T5, human DPEP-1 (Homo sapiens, UniProt P16444); experiment: Binding of Alexa-488 conjugated peptide to Cos-1 cells transfected with human DPEP-1 (immunofluorescence, biotin transfer); settings: Cos-1 cells transiently transfected with human DPEP-1 cDNA, 30 minutes on ice
T5 construct: expressed in transfected cells; host or cells: Cos-1
T5 sequence (P16444 17-385): T4 sequence (P16444 17-385)
Procedure: (§2) Cos-1 cells were transiently transfected with either 3 or 5|ig of membrane dipeptidase (DPEP-1) cDNA corresponding to the rat (Shown in FIG. 5A) or human DPEP-1 (Shown in FIG. 5B) gene using lipofectamine 2000 (Invitrogen) reagent in OptiMEM medium 24 hours after transfection, DPEP-1 expressing cells were re-seeded on collagen coated (neutralized) wells in 24 well plates and allowed to grow for 24 hours at 37 °C. 24 hours after seeding, media was removed and cells were washed with PBS. Cells were blocked with FBS/NBSA/Tween in PBS for 30 minutes on ice. Cells were then washed with PBS and incubated with Alexa-488 (green) conjugated LSALT, GFE-1, control peptide or DPEP-1 antibody (1/100) (Sigma) on ice for 30 minutes. […] After incubation, cells were washed with PBS and treated with 10 mg/ml biotin transfer peptide (LSALT, GFE-1 or Control Peptide (KGAL)] for 10 minutes. Cells were then washed with PBS and biotin transfer was enabled by UV activation of the aryl azide groups for 15 minutes at 363 nm. Residual fluid was removed and monolayers were lysed either with octyl-glucoside/RIPA or 8M urea. Isolated supernatants were rotated with […] of neutr-avidin agarose beads at 4° C. for 24 hours. Beads were washed with corresponding buffers, boiled in Laemmli buffer and analyzed by western blot using a DPEP-1 specific antibody (Proteintech).

[10] = tested on: serum cytokines in response to LPS; experiment: Plasma cytokine levels after LPS, Luminex Cytokine Arrays; type: in vivo, SCID mice; settings: LPS 0.5 mg/kg intraperitoneal 5 minutes prior to intravenous peptide; plasma at 4 hours
Procedure: 6-8 weeks old SCID mice were given an intraperitoneal injection of LPS (0.5 mg/kg) 5 minutes prior to intravenous injection of LSALT peptide or a control peptide. 4 hours following injection of LPS, blood was collected by cardiac puncture and changes in plasma cytokine levels were assessed using Luminex Cytokine Arrays. Bar graphs show the levels of different inflammatory mediators released in the plasma in the presence or absence of LSALT peptide and control peptide.
6-8 weeks old SCID mice were given an intraperitoneal injection of LPS (0.5 mg/kg) 5 minutes prior to intravenous injection of LSALT peptide or a control peptide. 4 hours following injection of LPS, blood was collected by cardiac puncture and changes in plasma cytokine levels were assessed using Luminex Cytokine Arrays. Bar graphs show the level of the anti-inflammatory cytokine IL-10 released in the plasma in LSALT peptide or control peptide in two independent experiments.

[11] = biological target: T6, rat DPEP-1 (Rattus norvegicus, UniProt P31430); experiment: Binding of Alexa-488 conjugated peptide to Cos-1 cells transfected with rat DPEP-1 (immunofluorescence); settings: Cos-1 cells transiently transfected with rat DPEP-1 cDNA, 30 minutes on ice
T6 construct: expressed in transfected cells; host or cells: Cos-1
Procedure: as §2

[12] = tested on: tumor cell line; experiment: Tumor burden in livers or lungs of animals injected with a tumor cell line; type: in vivo

T1 sequence (P31430 17-384): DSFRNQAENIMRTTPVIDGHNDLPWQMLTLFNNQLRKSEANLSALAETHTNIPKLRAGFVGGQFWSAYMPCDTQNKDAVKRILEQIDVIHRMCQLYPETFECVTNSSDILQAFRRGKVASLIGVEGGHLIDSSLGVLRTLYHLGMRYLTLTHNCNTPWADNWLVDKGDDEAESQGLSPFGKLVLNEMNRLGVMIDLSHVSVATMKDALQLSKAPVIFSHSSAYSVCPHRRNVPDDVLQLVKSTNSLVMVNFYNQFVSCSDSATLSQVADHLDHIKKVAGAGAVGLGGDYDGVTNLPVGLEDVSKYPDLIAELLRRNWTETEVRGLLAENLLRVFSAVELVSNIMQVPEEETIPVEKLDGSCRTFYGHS
T2 sequence (Q9H4A9 33-463): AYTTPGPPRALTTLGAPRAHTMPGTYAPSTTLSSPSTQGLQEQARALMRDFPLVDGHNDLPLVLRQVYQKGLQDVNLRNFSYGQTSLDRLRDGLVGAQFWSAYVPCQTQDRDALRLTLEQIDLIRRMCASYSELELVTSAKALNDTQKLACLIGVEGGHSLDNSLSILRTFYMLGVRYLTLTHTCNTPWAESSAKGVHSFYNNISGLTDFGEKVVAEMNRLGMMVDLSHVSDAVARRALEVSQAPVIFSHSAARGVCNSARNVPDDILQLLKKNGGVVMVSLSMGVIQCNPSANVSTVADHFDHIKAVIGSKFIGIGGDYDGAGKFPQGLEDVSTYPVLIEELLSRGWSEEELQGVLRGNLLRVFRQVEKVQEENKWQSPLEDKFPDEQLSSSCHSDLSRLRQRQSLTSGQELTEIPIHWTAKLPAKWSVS
T6 sequence (P31430 17-384): as the sequence (P31430 17-384) above

| binding to Cos-7 cells with expression of DPEP-1 (flow cytometry) [6] | inhibition of membrane dipeptidase enzyme activity [7] | binding to human DPEP-1 [9] | binding to rat DPEP-1 [11] | Sequence | neutrophil adhesion in the hepatic sinusoids in the presence of LPS [1] | binding to Cos-7 cells with expression of DPEP-1 (immunofluorescence microscopy) [2] | binding to human DPEP2 in vitro [3] | DPEP-1 binding activity in lung microvasculature [4] | binding to human DPEP-3 in vitro [5] | neutrophil recruitment to the liver ([1]; mouse model of sepsis) | melanoma-lung metastasis [8] | levels of serum cytokines (inflammatory mediators) in response to LPS [10] | production of the anti-inflammatory mediator IL-10 in response to LPS [10] | tumor burden in the livers or lungs [12] |
| --- | --- | --- | --- | --- | --- | --- | --- | --- | --- | --- | --- | --- | --- | --- |
|  |  |  |  | CGFECVRQCPERC (listed as Homo sapiens) [GFE-1, reference compound] | inhibit neutrophil adhesion | enhanced the binding | do not Bind | having DPEP-1 binding activity | do not Bind |  |  |  |  |  |
| enhanced the binding | does not inhibit | Bonds | Bonds | LSALTPSPSWLKYKAL (listed as Homo sapiens) | inhibit neutrophil adhesion | enhanced the binding | do not Bind |  | do not Bind | reduced neutrophil recruitment | Inhibits | attenuates the levels | increases the production | dramatically reduce tumor burden |
|  |  |  |  | CGFELETC (listed as Homo sapiens) [GFE-2] |  |  |  | having DPEP-1 binding activity |  |  |  |  |  |  |
